Measured values from patent US20230074436A1 (DENALI THERAPEUTICS, published 2023).
No end group written: not given here. *: point of attachment. Biotin = O=C1N[C@H]2[C@H](CS[C@H]2CCCCC(=O)*)N1

Legend:
asyn_113-127_123A = molecular target: T1, asyn_113-127_123A (human); assay: Ala-scan peptide ELISA, row B, run 1
T1 construct: substitution is already in the entry; also called pep12
T1 peptide: Biotin-LEDMPVDPDNAAYEM

asyn_113-127_122A = molecular target: T2, asyn_113-127_122A (human); assay: Ala-scan peptide ELISA, row B, run 1
T2 construct: substitution is already in the entry; also called pep11
T2 peptide: Biotin-LEDMPVDPDAEAYEM

asyn_113-127_113A [1] = molecular target: T3, asyn_113-127_113A (human); assay: Ala-scan peptide ELISA, row B, run 1
T3 construct: substitution is already in the entry; also called pep2
T3 peptide: Biotin-AEDMPVDPDNEAYEM

asyn_113-127_116A [2] = molecular target: T4, asyn_113-127_116A (human); assay: Ala-scan peptide ELISA, row B, run 1
T4 construct: substitution is already in the entry; also called pep5
T4 peptide: Biotin-LEDAPVDPDNEAYEM

asyn_113-127 [3] = molecular target: T5, asyn_113-127 (human); assay: Ala-scan peptide ELISA, row B, run 1
T5 construct: also called pep1
T5 peptide: Biotin-LEDMPVDPDNEAYEM

asyn_113-127_119A [4] = molecular target: T6, asyn_113-127_119A (human); assay: Ala-scan peptide ELISA, row B, run 1
T6 construct: substitution is already in the entry; also called pep8
T6 peptide: Biotin-LEDMPVAPDNEAYEM

asyn_113-127_124P [5] = molecular target: T7, asyn_113-127_124P (human); assay: Ala-scan peptide ELISA, row B, run 1
T7 construct: substitution is already in the entry; also called pep14
T7 peptide: Biotin-LEDMPVDPDNEPYEM

asyn_113-127_117A [6] = molecular target: T8, asyn_113-127_117A (human); assay: Ala-scan peptide ELISA, row B, run 1
T8 construct: substitution is already in the entry; also called pep6
T8 peptide: Biotin-LEDMAVDPDNEAYEM

asyn_113-127_121A = molecular target: T9, asyn_113-127_121A (human); assay: Ala-scan peptide ELISA, row B, run 1
T9 construct: substitution is already in the entry; also called pep10
T9 peptide: Biotin-LEDMPVDPANEAYEM

asyn_113-127_120A = molecular target: T10, asyn_113-127_120A (human); assay: Ala-scan peptide ELISA, row B, run 1
T10 construct: substitution is already in the entry; also called pep9
T10 peptide: Biotin-LEDMPVDADNEAYEM

asyn_113-127_115A [7] = molecular target: T11, asyn_113-127_115A (human); assay: Ala-scan peptide ELISA, row B, run 1
T11 construct: substitution is already in the entry; also called pep4
T11 peptide: Biotin-LEAMPVDPDNEAYEM

asyn_113-127_126A [8] = molecular target: T12, asyn_113-127_126A (human); assay: Ala-scan peptide ELISA, row B, run 1
T12 construct: substitution is already in the entry; also called pep16
T12 peptide: Biotin-LEDMPVDPDNEAYAM

asyn_113-127_118A = molecular target: T13, asyn_113-127_118A (human); assay: Ala-scan peptide ELISA, row B, run 1
T13 construct: substitution is already in the entry; also called pep7
T13 peptide: Biotin-LEDMPADPDNEAYEM

[9] = molecular target: biotinylated human alpha-synuclein (human, UniProt P37840 1-140); assay: Ala-scan peptide ELISA, row B, run 1
asyn_113-127_125A [10] = molecular target: T14, asyn_113-127_125A (human); assay: Ala-scan peptide ELISA, row B, run 1
T14 construct: substitution is already in the entry; also called pep15
T14 peptide: Biotin-LEDMPVDPDNEAAEM

asyn_113-127_124G = molecular target: T15, asyn_113-127_124G (human); assay: Ala-scan peptide ELISA, row B, run 1
T15 construct: substitution is already in the entry; also called pep13
T15 peptide: Biotin-LEDMPVDPDNEGYEM

asyn_113-127_127A = molecular target: T16, asyn_113-127_127A (human); assay: Ala-scan peptide ELISA, row B, run 1
T16 construct: substitution is already in the entry; also called pep17
T16 peptide: Biotin-LEDMPVDPDNEAYEA

asyn_113-127_113A [11] = molecular target: T3, asyn_113-127_113A; assay: Ala-scan peptide ELISA, row G, run 2
asyn_113-127_116A [12] = molecular target: T4, asyn_113-127_116A; assay: Ala-scan peptide ELISA, row G, run 2
asyn_113-127 [13] = molecular target: T5, asyn_113-127; assay: Ala-scan peptide ELISA, row G, run 2
asyn_113-127_119A [14] = molecular target: T6, asyn_113-127_119A; assay: Ala-scan peptide ELISA, row G, run 2
asyn_113-127_124P [15] = molecular target: T7, asyn_113-127_124P; assay: Ala-scan peptide ELISA, row G, run 2
asyn_113-127_117A [16] = molecular target: T8, asyn_113-127_117A; assay: Ala-scan peptide ELISA, row G, run 2
asyn_113-127_115A [17] = molecular target: T11, asyn_113-127_115A; assay: Ala-scan peptide ELISA, row G, run 2
asyn_113-127_126A [18] = molecular target: T12, asyn_113-127_126A; assay: Ala-scan peptide ELISA, row G, run 2
asyn_113-127_125A [19] = molecular target: T14, asyn_113-127_125A; assay: Ala-scan peptide ELISA, row G, run 2
asyn_113-127_114A = molecular target: T17, asyn_113-127_114A (human); assay: Ala-scan peptide ELISA, row G, run 2
T17 construct: substitution is already in the entry; also called pep3
T17 peptide: Biotin-LADMPVDPDNEAYEM

[20] = molecular target: T18, human alpha-synuclein monomer (human, UniProt P37840 1-140); assay: ELISA, plate coated with the peptide or protein, antibody titrated, anti-rat HRP, A450
[21] = molecular target: T19, alpha-synuclein peptide 95-140 (human); assay: as above
T19 construct: synthetic peptide coated on plate

[22] = molecular target: alpha-synuclein peptide 1-112 (human); assay: as above
[23] = molecular target: T20, alpha-synuclein peptide 1-61 (human); assay: as above
T20 construct: synthetic peptide coated on plate

[24] = molecular target: T21, alpha-synuclein peptide 1-95 (human); assay: as above
T21 construct: synthetic peptide coated on plate

[25] = molecular target: T18, human alpha-synuclein monomer; assay: direct ELISA, plate coated with 1 µg/mL recombinant human alpha-synuclein, antibody titrated, anti-rat HRP, A450

A450 (asyn_113-127_123A): 0.546 OD
A450 (asyn_113-127_122A): 0.058 OD
A450 (asyn_113-127_113A [1]): 0.462 OD
A450 (asyn_113-127_116A [2]): 0.501 OD
A450 (asyn_113-127 [3]): 0.501 OD
A450 (asyn_113-127_119A [4]): 0.058 OD
A450 (asyn_113-127_124P [5]): 0.047 OD
A450 (asyn_113-127_117A [6]): 0.527 OD
A450 (asyn_113-127_121A): 0.49 OD
A450 (asyn_113-127_120A): 0.393 OD
A450 (asyn_113-127_115A [7]): 0.486 OD
A450 (asyn_113-127_126A [8]): 0.35 OD
A450 (asyn_113-127_118A): 0.509 OD
A450 [9]: 0.711 OD
A450 (asyn_113-127_125A [10]): 0.049 OD
A450 (asyn_113-127_124G): 0.366 OD
A450 (asyn_113-127_127A): 0.333 OD
A450 (asyn_113-127_113A [11]): 0.095 OD
A450 (asyn_113-127_116A [12]): 0.101 OD
A450 (asyn_113-127 [13]): 0.089 OD
A450 (asyn_113-127_119A [14]): 0.05 OD
A450 (asyn_113-127_124P [15]): 0.048 OD
A450 (asyn_113-127_117A [16]): 0.108 OD
A450 (asyn_113-127_115A [17]): 0.057 OD
A450 (asyn_113-127_126A [18]): 0.101 OD
A450 (asyn_113-127_125A [19]): 0.049 OD
A450 (asyn_113-127_114A): 0.093 OD
EC50 (read off the curve) [20]: ~0.2 µg/mL
EC50 (read off the curve) [21]: ~0.3 µg/mL
EC50 (read off the curve) [25]: ~0.2 µg/mL
B1: 20H4 (antibody, rat IgG2b, V domains shown)
VH: AVQLVESGGGLVQPKESLKISCAASGFTFSNAAMYWVRQAPGKGLELLARIRTKPNNYATYHADSVKGRFTISRDDSQSMVYLHMGNLKTEDTAMYYCTADMATGDYWGPGVMVTVSS
VL: DIQMTQSPPVLSVSVGDRVTLSCKASQNINKNLDWYQQKHGEAPKPLIYSTNNLQTGVPSRFSGSGSGTDYTLTISSLQPEDVATYYCYQYKSAWTFGGGTKLELR
notes: also called clone 20H4; rat 20H4
binding result [22]: no binding (tested: 10 µg/ml (1 on the log axis))
binding result [23]: no binding (tested: 10 µg/ml (1 on the log axis))
binding result [24]: no binding (tested: 10 µg/ml (1 on the log axis))
